Consider 1 molecule from PMC6491619, “Development and application of a high-content virion display human GPCR array” (Nature Communications, 2019).

No end group written: not given here.

Common to all, as to assay: virion-oscillator (plasmonic imaging, SPR read-out); VirD-GPCR virions tethered to a gold chip by a PEG linker and driven by a sinusoidal potential (5 Hz); label-free SRIF-14 perfused at several doses; first-order kinetics model
Conditions in all cases: one partner purified

In assay [1] the target is T1, VirD-GABBR2 (human, UniProt O75899 42-941).
T1 construct: source: recombinant HSV-1 (UL27 locus); virions from infected cells (in most cases Vero), purified by sucrose cushion; also on infected Vero cells; not shown: V5, C-terminal, kept
T1 sequence: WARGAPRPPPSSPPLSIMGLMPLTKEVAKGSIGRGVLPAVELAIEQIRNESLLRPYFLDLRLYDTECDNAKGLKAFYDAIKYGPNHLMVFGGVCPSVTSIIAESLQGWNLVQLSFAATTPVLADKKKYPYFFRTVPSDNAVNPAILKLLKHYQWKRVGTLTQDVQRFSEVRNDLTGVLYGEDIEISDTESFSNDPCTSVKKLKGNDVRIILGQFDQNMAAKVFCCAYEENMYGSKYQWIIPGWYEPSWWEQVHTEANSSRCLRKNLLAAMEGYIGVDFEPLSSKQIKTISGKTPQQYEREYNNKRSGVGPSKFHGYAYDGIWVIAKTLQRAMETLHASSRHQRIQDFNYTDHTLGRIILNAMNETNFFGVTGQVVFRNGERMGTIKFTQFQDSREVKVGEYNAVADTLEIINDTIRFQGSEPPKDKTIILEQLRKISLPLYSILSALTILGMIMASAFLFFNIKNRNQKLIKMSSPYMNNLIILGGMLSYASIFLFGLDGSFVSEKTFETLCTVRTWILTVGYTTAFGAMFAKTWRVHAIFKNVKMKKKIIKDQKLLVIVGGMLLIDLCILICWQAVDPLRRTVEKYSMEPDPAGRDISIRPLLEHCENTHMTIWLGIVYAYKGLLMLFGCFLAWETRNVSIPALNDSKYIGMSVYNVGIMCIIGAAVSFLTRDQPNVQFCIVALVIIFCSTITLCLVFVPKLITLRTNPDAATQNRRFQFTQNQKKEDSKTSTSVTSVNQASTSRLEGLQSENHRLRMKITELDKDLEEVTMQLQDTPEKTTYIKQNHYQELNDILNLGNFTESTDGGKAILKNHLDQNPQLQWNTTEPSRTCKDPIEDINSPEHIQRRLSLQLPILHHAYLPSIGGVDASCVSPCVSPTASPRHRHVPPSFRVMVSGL

The target of assay [2] is T2, VirD-NTSR1 (human, UniProt P30989 1-418).
T2 construct: source: recombinant HSV-1 (UL27 locus); virions from infected cells (in most cases Vero), purified by sucrose cushion; also on infected Vero cells; not shown: V5, C-terminal, kept

Assay [3] deals with T3, VirD-KISS1R (human, UniProt Q969F8 1-398).
T3 construct: source: recombinant HSV-1 (UL27 locus); virions from infected cells (in most cases Vero), purified by sucrose cushion; also on infected Vero cells; not shown: V5, C-terminal, kept
T3 sequence (Q969F8 whole entry): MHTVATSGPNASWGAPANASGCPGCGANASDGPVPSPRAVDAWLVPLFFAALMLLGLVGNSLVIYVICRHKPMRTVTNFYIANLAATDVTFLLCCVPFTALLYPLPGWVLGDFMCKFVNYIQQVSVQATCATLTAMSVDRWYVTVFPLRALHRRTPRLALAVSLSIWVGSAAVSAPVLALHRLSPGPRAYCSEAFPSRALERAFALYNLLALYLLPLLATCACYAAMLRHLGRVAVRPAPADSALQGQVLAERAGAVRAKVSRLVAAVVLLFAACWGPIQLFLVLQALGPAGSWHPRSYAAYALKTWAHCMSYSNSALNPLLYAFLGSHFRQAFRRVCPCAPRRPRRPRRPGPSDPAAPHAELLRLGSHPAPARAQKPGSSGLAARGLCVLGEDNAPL

T2 sequence (P30989 whole entry): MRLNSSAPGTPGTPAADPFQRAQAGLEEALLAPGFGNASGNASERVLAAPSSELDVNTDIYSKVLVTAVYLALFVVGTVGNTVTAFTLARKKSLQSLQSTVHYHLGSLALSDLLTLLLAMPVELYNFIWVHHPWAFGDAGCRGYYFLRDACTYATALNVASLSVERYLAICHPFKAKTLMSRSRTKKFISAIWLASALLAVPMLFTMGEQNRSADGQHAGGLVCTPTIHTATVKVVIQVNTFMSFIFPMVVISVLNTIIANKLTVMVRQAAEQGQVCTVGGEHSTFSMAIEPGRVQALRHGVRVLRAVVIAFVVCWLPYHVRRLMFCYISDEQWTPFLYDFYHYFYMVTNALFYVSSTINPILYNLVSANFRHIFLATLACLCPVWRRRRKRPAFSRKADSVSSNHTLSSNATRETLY

B1: somatostatin-14 (SRIF-14), unlabeled (peptide)
peptide: AGCKNFFWKTFTSC
modifications: not fully specified (bridges); ends and bridges not checked
notes: somatostatin-14 (SRIF-14), cut product of the somatostatin precursor; also called cold SRIF-14; SIRF-14; source: bought: AnaSpec (peptide)
B1: the dissociation constant (Kd) worked out at 400 nM in assay [1], 2600 nM in assay [2] and 25 µM in assay [3].

Broadly, the Kd is a measure of binding affinity in units of concentration.
